Tests used:
Assay in all cases: cell_activity
[1] = test system: IL-1-FokI C3H F4 HTKRCGGG (pDAB4343) F4 zinc coordinating region HTKRCGGG (engineered); conditions: pDAB4343, tobacco BY2-380
[2] = test system: IL-1-FokI C3H F4 HTKIC (pDAB4342) F4 zinc coordinating region HTKIC (engineered); conditions: pDAB4342, tobacco BY2-380
[3] = test system: IL-1-FokI C3H F4 HAQRCG (pDAB4344) F4 zinc coordinating region HAQRCG (engineered); conditions: pDAB4344, tobacco BY2-380
[4] = test system: IL-1-FokI C2H2 (pDAB4341/pDAB4323) (engineered); conditions: pDAB4341, tobacco BY2-380; pDAB4323 (non-plant codon FokI) 5.53
[5] = test system: IL-1-FokI C3H F2 HIRTGC (pDAB4346/pDAB4356) F2 zinc coordinating region HIRTGC (engineered); conditions: pDAB4346, tobacco BY2-380 intrachromosomal recombination; pDAB4356 also active in interchromosomal HR

Substance IL-1-L0-FokI site, 4 tandem repeats has an activity (GFP expression) [1] of 7.57, an activity (GFP expression) [2] of 0.25 and an activity (GFP expression) [3] of 4.39. It also gave an activity (GFP expression) [4] of 6.37 and an activity (GFP expression) [5] of 9.5.

From patent US20080182332
